Data on 41 sequences can be found in the nanobody polyreactivity screen of Harvey et al. (2022).

The nature of the data set: yeast display, Sf9 membrane polyspecificity reagent, FACS + sequencing; frameworks hold sequencing errors. A digest of the protocol:
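Nanobodies came from a synthetic yeast display library in Saccharomyces cerevisiae BJ5465, induced with galactose for 36–48 hours and stained for 1 hour at 4 °C with 10% biotinylated, detergent-solubilized Sf9 membrane reagent. Cells were enriched on streptavidin microbeads and then FACS-sorted, with low and high (top ~1%) gates set on anti-HA fluorescence for expression and streptavidin fluorescence for reagent binding. Each polyreactivity label reflects the gate a clone came from. Genes were amplified by colony PCR, sequenced by MiSeq 2 × 250 and filtered by CDR length.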
For the sequence “QVQLVESGGRLVQAGGSLRLSCAASGSTFNRYAMGWYRQAPGKERELVAAISRGGSTTYADSVKGRFTISRDNAKHTVYLQMYSLKPEDTAVYYCAALYYSPRYWYDYWGLGTQVTVSS”, the “polyreactivity (PSR sort gate)” value is listed as “high polyreactivity”.

“QVQLVESGGRLVQAGGSLRLSCAASGSTFSRNARGWNRQAPGKERELVAAISRSSSRTYYADSVKGRFTISRDNAKNTVYLQMNSLKPEDTAVYYCAADGYVWTPYLYDYWGQGTQVTVSS”: the “polyreactivity (PSR sort gate)” value is “high polyreactivity”. Consider “QVQLVESGGRLVQAGGSLRLSCAASGSTFTYNAMGWYRQAPGKESELVASISSGTTTYYADSVKGRFTISRDNAKNTVYVQMNSLKPEDTAVYYCAFDSWSRVQGWLAHNYDYWGQGTQVTVSS”, for which the “polyreactivity (PSR sort gate)” value was “low polyreactivity”. For “QVQLVESGGRLVQAGGSLRLSCAASGSTFYDYAMGWYRQAPGKERELVASIDSGDSTNYADSVKGRFTISRDNAKNTVYLQMNSLKPEDTAVYYCAADYRAPLDYWGQGTQVTVSS”, the “polyreactivity (PSR sort gate)” value is reported as “low polyreactivity”. For the sequence “QVQLVESGGRLVQAGGSLRLSCAASGSTIVRNGMGWYRQAPGKERELVAAITRGGSTYYADSVKGRFTISRDNAKNTVYLQMNSLKPEDTAVYYCATYDPARSTQGYDYWGQGTQVTVSS”, the “polyreactivity (PSR sort gate)” value is reported as “high polyreactivity”. Next, “QVQLVESGGRLVQAGGSLRLSCAASGSTIYPNAMGWSRQAPGKERELVAAISRGTRTKYADSVKGRFTISRDNAKNTVYVQMNSLKPEDTAVYYCAADTGTGLDWGQGTQGTVSS”: “high polyreactivity”; “QVQLVESGGRLVQAGGSLRLSCAASGSTVGYNALGWYRQAPGKASELVAAITSRGSTNYADSVKGRFTISRDNAKNTVYLQMNSLKPEVTAVYYCAKATSSSEYGYDYWGQGTQVTVSS”: “high polyreactivity”; “QVQLVESGGRLVQAGGSLRLSCAASGSTYAMGWYRQAPGKERELVASITSRGGSTYYADSVKGRFTISRDNAKNTVYLQMNSLKPEDTAVYYCAARWYFSYIGYDYWGQGTQVTVSS”: “high polyreactivity”. For the sequence “QVQLVESGGRLVQAGGSLRLSCAASGYIFSRNAMGSYRQAPGKERELVATISRGGSTYYGDSVKGRFTISRDNDKNTVYLQMNSLKPEDTAVYFCAATVVYWRSKSSVRRYDYWGQGTQVTVSS”, the “polyreactivity (PSR sort gate)” value is on record as “high polyreactivity”. The entry for “QVQLVESGGRLVQAGGSLRLSGAASGITLGTYLMGWYRQAPGKEREMLAAISSGGSTYYADSVKGRFTISRDNAKNTVFLQMNSLKPEDTAVYYCAAQYYPYYDSRVSYDYWGQGTQVTVSS” is “low polyreactivity”; for “QVQLVESGGRLVQAGGSLRLSSAASGGTFYRNARGWYRQAPGKERELVASISRTGGSTYYADSVKGRFTISRDNAKNTVYLQMNSLKQVDTAVYYCAKKQPRYSYFDNDYWGQGTQVTVSS” it is “high polyreactivity”; for “QVQLVESGGRLVQAGGSLRLTCAASGSTFSRYAMGWSRQAPGKERELVAAITGSGGNTYYADSVKGRFTISRDNAKNTVYLQMNSLKPEDTAVYYCAAEDYVGWYNFEYWGQGTQVTVSS” it is “high polyreactivity”. With “QVQLVESGGRLVQAGGSLRLTCAASGSTFTTYAMGWSRQAPGKERELVAAITSGSSTNYADSVKGRFTISRDNAKNTVYLQMNSLKPEDTAVYYCAVDREWPGYYYAISKMYYWGQGTQVTVSS”, the “polyreactivity (PSR sort gate)” value was “low polyreactivity”. The entry for “QVQLVESGGRLVQAGGSLRLTCDASGRTFDYNAMGWYRQAPWKERQLVAAITSRGGSTYYADSVKGRFTISRDNAKNTVYLQMNSLKPEDTAVYYCAAQHSVLAYFEYDYWGQGTQVTVSS” is “low polyreactivity”.

Take “QVQLVESGGRLVQAGRSLRLSCAASGRTLKQYVMGWYRQAPGKERELVAAISRRGSSTYYADSVKGRFTISRDNAKNTVYLQMYSLKPEDTAVYYCAAPVYTTRHITAAYEEYGYWGQGTQVNVSS”: the “polyreactivity (PSR sort gate)” value was “high polyreactivity”. In the case of “QVQLVESGGRLVQSGGSLRLSCAASGRIFLYYTMGWYRQAPGKERELVATIRSGDSTNYADSVKGRFTISRDNAKNTVYLQMNSLKPEVTAVYYCAADWDIFQQGANGAPYDYWGQGTQVTVSS”, the “polyreactivity (PSR sort gate)” value was “low polyreactivity”.

Consider “QVQLVESGGSLVQAGGSHRLSCAASRSIFPPYAMGWYRPAAGKERELVAAITLRGGSTYYADSVKGRFTISRDNAKNTVYLQMNSLKPEDTAVYYCAAYKSAREYYWGQGTQVTVSS”, for which the “polyreactivity (PSR sort gate)” value is “high polyreactivity”. In the case of “QVQLVESGGSLVQAGGSLRLICAASGITFWPYAMGWYRPAPGKERELVAAINSGGDTYYADSVKGRFTISRDNAKNSVYLQMNILKPEDTAVYYCAKGRDWADEEGYEYWGQGTQVTVSS”, the “polyreactivity (PSR sort gate)” value is “low polyreactivity”.

As to “QVQLVESGGSLVQAGGSLRLSCAASGYTIDSYGMGWYRQAPGKERELVAPIDWSGGSTYYADSVKGRFTIARDTAKNTVYLQKNSLIPDDSAVYYCNRDSAGPGDVILAYTGNDYWGQGTQVTVSS”, the “polyreactivity (PSR sort gate)” value is “low polyreactivity”. For “QVQLVESGGSLVQSGGSLRLSCAASGSIFYRNAMGWYRQEPGKERELVASITSGGRTNYADSVKGRFTISRDNAKNTVYLQMNSLKPEDTAVYYCARGRASYTKSGPTPYTGYGYWGQGTQVTVSS”, the “polyreactivity (PSR sort gate)” value is reported as “low polyreactivity”. As to “QVQLVESGGVLDQARGSLRLSCAASGRIFGYNAMGWYRQAPGKERELVAAISWGGGRTYYADSVKGRFTISRDNAKNTVYLQMNSLKPEDTAVYYCNALYVGYYDSMGYWGQGTQVTVSS”, the “polyreactivity (PSR sort gate)” value is recorded as “high polyreactivity”. For “QVQLVESGGVLDQGGGSLRLSCASSGITYRRYAMGWYRQAPGKERELVAANTYGGGSTYYADSVKGRFTISRDNAKNTVYLQMNSLKPADTAVFYCYARYSGGFGGGSKPDYYWGQGTQVTVAS”, the “polyreactivity (PSR sort gate)” value was “high polyreactivity”.

For “QVQLVESGGVLVQAGCSLRLSCAASGRTIPWYTMGWYRQAPRKERELVAAISNGGSTYYADSVKGRFTISRDNAKNTVYLQMNSLIPEDTAVYYCNSLVYKYIYNYDYWGQGTQVTVSS”, the “polyreactivity (PSR sort gate)” value was “high polyreactivity”. “QVQLVESGGVLVQAGGILRLSCAASGNIVVYYAMGWSRQAPGKERELVASITTSGGSTYYADSVKGRFTISRDNATNTVYFQMNSLKPEDTAVYYCAALYYYWLYYWGQGTQVTVSW”: the “polyreactivity (PSR sort gate)” value is recorded as “low polyreactivity”. “QVQLVESGGVLVQAGGRLGLSCAASGSTLRAYAMGWYRQATGKVRELVATISSGGRTYYADSVKGRFTISRDNAKNTVYLQMNSLKPEDTAVYYSAKREHGFFYYTYDYWGQGTQVTVSS”: the “polyreactivity (PSR sort gate)” value is “low polyreactivity”. The entry for “QVQLVESGGVLVQAGGRLSLICAASGRTFARYVMGWYRKAPGKERELVAAINSGGTTYYADSVKGRFTISRDNAKNTVYLQMNSLKPEDTAVYYCNARRGHYAYDYWGQGTQVTVSS” is “high polyreactivity”; for “QVQLVESGGVLVQAGGSLRLSCAASGFIFETYVMGWYRQAPGKERELVDAISGGGSTYYADSVKGRFTISRDNAKKTVYLQMNSLKPEDTAVYYCAAKSGSFVHGGYQTPVYGSDYWGQGTQVTVSS” it is “high polyreactivity”. Turning to “QVQLVESGGVLVQAGGSLRLSCAASGFIFYSYDMGWYRQAPGKERELDAAIRSDGSTYYADTVKGRFTISRDNAKNTVYLQMYSLKPEDTAVYDCAAKYGVRYWHYYSWTNDYWGQGTQVTVSS”, the “polyreactivity (PSR sort gate)” value is on record as “low polyreactivity”. Turning to “QVQLVESGGVLVQAGGSLRLSCAASGFTFQAYTMGWYRQAPVKERELVAAISRSGGRTYYADSVKGRFTISRDNAKNTVYLQMNSLKPEDTAVYYCAKRTTYSDDYWGQGTQVTVSS”, the “polyreactivity (PSR sort gate)” value is recorded as “high polyreactivity”. For the sequence “QVQLVESGGVLVQAGGSLRLSCAASGIIFFYNAMGWYRQAPGKERELVAAISARGGRTYYADSVKGRFTISRDNAKNTVYLQMNSLKPEDTAVYYCNAYRYGWEDMDYWGQGTQVTVSS”, the “polyreactivity (PSR sort gate)” value was “high polyreactivity”. Consider “QVQLVESGGVLVQAGGSLRLSCAASGIIYYGYAMGWYRQAPRKERELVAAISRSGGSTYYADSVKGRFTISRDNAMNTVYFLMNSLKPEDTAVYYCAALVRTTSSYRYNFWGQGTQVTVSS”, for which the “polyreactivity (PSR sort gate)” value is “high polyreactivity”. Take “QVQLVESGGVLVQAGGSLRLSCAASGLIFATYAMGWSRQAPGKERELVAAISSNGDRTYYADSVKGGFTISRDNAKNTVYLQMNCLKPEDTAVYYCARLYLVQSRYPEMDFWGQGTQVTVSS”: the “polyreactivity (PSR sort gate)” value is given as “high polyreactivity”. The entry for “QVQLVESGGVLVQAGGSLRLSCAASGLIFSRYVMGWYRQAPGKERELVAAISRSGGSTYYADSVKGRFTISRDNAKNTVYLQMNSLKPEDTAVYYCNKLAPAPEADDYWGQGTQLTVSS” is “high polyreactivity”; for “QVQLVESGGVLVQAGGSLRLSCAASGLTFGGNAKGWYRPAPGKERELVAAISWSDDTTDYADSVKGRFTISRDNAKNTVYLQMNSLKPEDTAVYYCAARLPFEYVDYWGQGTQVTVSS” it is “low polyreactivity”. Regarding “QVQLVESGGVLVQAGGSLRLSCAASGLTFKWYAMGWYRQAPGKERELVAAITKSGGTTYADSVKGRFTISRDNAKNTVYLQMNSLKPEDTAVYYCAARYWRLWNTVRYEGDFSDGYWGQGTQVTVSS”, the “polyreactivity (PSR sort gate)” value is given as “high polyreactivity”. Turning to “QVQLVESGGVLVQAGGSLRLSCAASGNIFYAYAMGWYRQAPGKERELVAAISWSGDSTYYADSVKGRFTISRDNAKNTVNLQMNSLKPEETAVEYCAADSYRFYSGYYYWGQGTQVTVSS”, the “polyreactivity (PSR sort gate)” value was “low polyreactivity”.

Take “QVQLVESGGVLVQAGGSLRLSCAASGRIFRYYAMGWYRQAPGKERELVAAISSDGSTDYADSVKGRFTISRDNAKNTVYLLMNSLKPEDTAVYYCAASVVSYGHDYWGQGTQVTVSS”: the “polyreactivity (PSR sort gate)” value is recorded as “low polyreactivity”. The entry for “QVQLVESGGVLVQAGGSLRLSCAASGRIFSSYAMGWNRHAPGKERELVATSRRADSTYYADSVKGRFTISRDNAKNTVYLQMNSLKPEDTAVYYCAADTRLSRLIHRYDYWGQGTQVTVSS” is “low polyreactivity”. With “QVQLVESGGVLVQAGGSLRLSCAASGRTFFNYAMGWYRQAPGKESEFVASISWSDVITYYADSVKGRFTISRDNAKNTVYLQMNSLKQEDTAVYYCAASKVGGGEEYWGQGTQVTVSS”, the “polyreactivity (PSR sort gate)” value is “low polyreactivity”. The entry for “QVQLVESGGVLVQAGGSLRLSCAASGRTFFRYTMGWYRPAPGKERELVAAISRSDGSTYYADSVKGRFTISRDNAKNTVYLQMNSLKPEDTAVYYCAKSLPSGYYYWGQGTQVTVSS” is “low polyreactivity”. Take “QVQLVESGGVLVQAGGSLRLSCAASGRTFLYNAMGWYRQAPGKERELVAAISSRGARTYYADSVKGRFTISRDNAKKTVYLQMNSLKPEDTAVYYCAASYTTAYYRYDYWGQGTQVTVSS”: the “polyreactivity (PSR sort gate)” value is “high polyreactivity”.
